The text below walks through data of article doi:10.1101/2023.01.20.524748, “A Novel Monoclonal Antibody Targeting a Large Surface of the Receptor Binding Motif Shows Pan-neutralizing SARS-CoV-2 Activity Including BQ.1.1 Variant” (bioRxiv, 2023).

The target in assay [1] is T1, RBD of the WH1 (ancestral) SARS-CoV-2 spike protein (Severe acute respiratory syndrome …, UniProt P0DTC2).
T1 construct: also called RBD from the ancestral variant; WH1 RBD
Put plainly: ELISA. To be noted: both partners purified. Background: ELISA stands for enzyme-linked immunosorbent assay.

In assay [2] the target is T2, B.1.1.529 (BA.1) S1 + S2 Trimer-His Recombinant Protein (SARS-CoV-2 Omicron B.1.1.529 (BA.1), strain).
T2 construct: also called Omicron BA.1 trimeric spike; BA.1 spike
Put plainly: cryo-EM structure. As to conditions: both partners purified.

B1: 17T2 mAb (human recombinant monoclonal IgG1) (antibody, V domains shown)
VH: QVQLVQSGPEVKKPGTSVKVSCKAPVFTFSISAVQWVRQARGQRLEWIGWIVVGSGNTNYAQNFQERVTITTDMSTGTVYMELSGLRSEDTAMYYCAAPYCNRTTCYDGFDLWGQGTMVTVSS
VL: EIVLTQSPGTLSLSPGERATLSCRASQSISSNYLAWYQQKPGQAPRLLIYGASSRATGIPDRFSGSGSGTDFTLSINRLEPEDFAMYYCQHYGGLSRWTFGQGTKVEIK
For B1, the binding result in assay [1] was “binds”.

B2: 17T2 Fab fragment (Fab, V domains shown)
VH: QVQLVQSGPEVKKPGTSVKVSCKAPVFTFSISAVQWVRQARGQRLEWIGWIVVGSGNTNYAQNFQERVTITTDMSTGTVYMELSGLRSEDTAMYYCAAPYCNRTTCYDGFDLWGQGTMVTVSS
VL: EIVLTQSPGTLSLSPGERATLSCRASQSISSNYLAWYQQKPGQAPRLLIYGASSRATGIPDRFSGSGSGTDFTLSINRLEPEDFAMYYCQHYGGLSRWTFGQGTKVEIK
notes: also called Fab 17T2
What is called stoichiometry N is the number of molecules, sites or subunits per partner or assembly. Turning to B2, the “stoichiometry N” value in assay [2] was 3 Fab per spike trimer.
